Source: US20220089702A1 (PROTHENA BIOSCIENCES, published 2022)
Ends that are not written are not given here.

B1: mouse monoclonal antibody 5G8 (antibody, V domains shown)
VH: EVQLQQSGAELVRSGASVRLSCTASGFNIKDYYMHWVRQRPEQGLEWIGWIDPENGDTVYAPKFQGKATMTSDTSSNTAYLHLSSLTSEDTAVYYCSPLDFWGQGTTLTVSS
VL: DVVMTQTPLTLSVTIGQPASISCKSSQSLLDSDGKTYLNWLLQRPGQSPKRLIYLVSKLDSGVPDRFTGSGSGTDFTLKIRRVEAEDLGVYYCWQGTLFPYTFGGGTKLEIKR
notes: Hybridoma-produced mouse antibody; also called m5G8; murine 5G8
B2: mouse monoclonal antibody 8A4 (antibody, mouse IgG1, V domains shown)
VH: EVQLQQSGAELVRPGALVKLSCKASGFNIKDYYIHWVKQRPEQGLEWIGWIDPENGDTVYDPQFQDKANITADTSSNTAYLQLSSLTSEGTAVYYCSTLDFWGQGTTLTVSS
VL: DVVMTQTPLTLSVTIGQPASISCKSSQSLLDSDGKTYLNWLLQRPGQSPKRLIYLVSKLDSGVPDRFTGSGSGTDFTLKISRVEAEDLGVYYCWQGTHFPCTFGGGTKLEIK
notes: Mouse IgG1/kappa; also called m8A4; murine 8A4
B3: mouse monoclonal antibody 6A10 (antibody, mouse IgG1, V domains shown)
VH: EVQLQQSGAELVRSGASVKLSCTASGLNIKDYYIHWVKQRPEQGLEWIGWIDPENDDTEYAPKFQGRATLTTDTSSNTAYLQLSSLTSEDTAVYYCTPLDYWGQGTSVTVSS
VL: not shown
notes: Mouse IgG1/kappa; also called m6A10; murine 6A10

Target: T1, biotinylated tau peptide spanning amino acids 199-213 of SEQ ID NO:3 (human, also: biotinylated (position not given here))
T1 peptide: KSKIGSTENLKHQPG
Test: ELISA, biotinylated peptide on streptavidin plate
Excerpt: Overlapping biotinylated peptides spanning the length of the 4R0N isoform of tau (383 amino acids) were bound to wells of a streptavidin-coated ELISA plate. The plate was washed and blocked, and murine forms of antibodies 5G8, 6A10, 8A4, 7G6 and 3D6 were applied. After washing, a horseradish peroxidase-conjugated anti-mouse antibody was applied to the plate, followed by treatment with OPD (o-phenylenediamine dihydrochloride) to allow color development. The plate was read at 450 nm absorbance, with background from wells omitting primary antibody used as a blank subtraction. […] These peptides correspond to amino acids 257-271 and 315-329 in the full-length 4R2N human tau protein.

Binding result, binds:
B1, B2, B3
